This note sets out measurements from publication PMC12016152.

The nature of data set [1]: surface biotinylation, western blot, CHO (n = 2). The conditions noted are these: glycan lost; control: ASIC1a + ASIC4WT.
A short description of data set [2]: whole-cell patch clamp, pH 5.0 peak current density, CHO. The conditions noted are these: glycan lost; control: ASIC1a + ASIC4WT.
A short description of data set [3]: amygdala cell surface fraction, western blot, Asic4-/- mice. The conditions noted are these: glycan lost; control: AAV-DIO-ASIC4WT rescue. A general note: A western blot detects proteins with antibodies after separation by electrophoresis.

B1: ASIC4: ASIC4N376A (protein)
parent chain: MPIEIVCKIKFAEEDAKPKEKEAGDEQSLLGAAQGPAAPRDLATFASTSTLHGLGRACGPGPHGLRRTLWALALLTSLAAFLYQAASLARGYLTRPHLVAMDPAAPAPVAGFPAVTLCNINRFRHSALSDADIFHLANLTGLPPKDRDGHRAAGLRYPEPDMVDILNRTGHQLADMLKSCNFSGHHCSASNFSVVYTRYGKCYTFNADPQSSLPSRAGGMGSGLEIMLDIQQEEYLPIWRETNETSFEAGIRVQIHSQEEPPYIHQLGFGVSPGFQTFVSCQEQRLTYLPQPWGNCRAESELREPELQGYSAYSVSACRLRCEKEAVLQRCHCRMVHMPGNETICPPNIYIECADHTLDSLGGGSEGPCFCPTPCNLTRYGKEISMVKIPNRGSARYLARKYNRNETYIRENFLVLDVFFEALTSEAMEQQAAYGLSALLGDLGGQMGLFIGASILTLLEILDYIYEVSWDRLKRVWRRPKTPLRTSTGGISTLGLQELKEQSPCPSRGRAEGGGASSLLPNHHHPHGPPGSLFEDFAC
For B1, in data set [1], the “other: surface expression of co-expressed ASIC1a” value is “no change”. In data set [2], the “other: channel current of co-expressed ASIC1a” value (“other: channel current” below) is recorded as “no change”.

B2: ASIC4: ASIC4N191A, N243A, N341A, N376A (protein)
parent chain: MPIEIVCKIKFAEEDAKPKEKEAGDEQSLLGAAQGPAAPRDLATFASTSTLHGLGRACGPGPHGLRRTLWALALLTSLAAFLYQAASLARGYLTRPHLVAMDPAAPAPVAGFPAVTLCNINRFRHSALSDADIFHLANLTGLPPKDRDGHRAAGLRYPEPDMVDILNRTGHQLADMLKSCNFSGHHCSASNFSVVYTRYGKCYTFNADPQSSLPSRAGGMGSGLEIMLDIQQEEYLPIWRETNETSFEAGIRVQIHSQEEPPYIHQLGFGVSPGFQTFVSCQEQRLTYLPQPWGNCRAESELREPELQGYSAYSVSACRLRCEKEAVLQRCHCRMVHMPGNETICPPNIYIECADHTLDSLGGGSEGPCFCPTPCNLTRYGKEISMVKIPNRGSARYLARKYNRNETYIRENFLVLDVFFEALTSEAMEQQAAYGLSALLGDLGGQMGLFIGASILTLLEILDYIYEVSWDRLKRVWRRPKTPLRTSTGGISTLGLQELKEQSPCPSRGRAEGGGASSLLPNHHHPHGPPGSLFEDFAC
For B2, the “other: surface expression of co-expressed ASIC1a” value in data set [1] was “increases”. In addition, in data set [2], the “other: channel current” value is reported as “increases”.

B3: ASIC4: ASIC4N341A (protein)
parent chain: MPIEIVCKIKFAEEDAKPKEKEAGDEQSLLGAAQGPAAPRDLATFASTSTLHGLGRACGPGPHGLRRTLWALALLTSLAAFLYQAASLARGYLTRPHLVAMDPAAPAPVAGFPAVTLCNINRFRHSALSDADIFHLANLTGLPPKDRDGHRAAGLRYPEPDMVDILNRTGHQLADMLKSCNFSGHHCSASNFSVVYTRYGKCYTFNADPQSSLPSRAGGMGSGLEIMLDIQQEEYLPIWRETNETSFEAGIRVQIHSQEEPPYIHQLGFGVSPGFQTFVSCQEQRLTYLPQPWGNCRAESELREPELQGYSAYSVSACRLRCEKEAVLQRCHCRMVHMPGNETICPPNIYIECADHTLDSLGGGSEGPCFCPTPCNLTRYGKEISMVKIPNRGSARYLARKYNRNETYIRENFLVLDVFFEALTSEAMEQQAAYGLSALLGDLGGQMGLFIGASILTLLEILDYIYEVSWDRLKRVWRRPKTPLRTSTGGISTLGLQELKEQSPCPSRGRAEGGGASSLLPNHHHPHGPPGSLFEDFAC
Take B3: the “other: surface expression of co-expressed ASIC1a” value in data set [1] is reported as “increases”. Besides, in data set [2], the “other: channel current” value is given as “increases”.

B4: ASIC4: ASIC4N191A (protein)
parent chain: MPIEIVCKIKFAEEDAKPKEKEAGDEQSLLGAAQGPAAPRDLATFASTSTLHGLGRACGPGPHGLRRTLWALALLTSLAAFLYQAASLARGYLTRPHLVAMDPAAPAPVAGFPAVTLCNINRFRHSALSDADIFHLANLTGLPPKDRDGHRAAGLRYPEPDMVDILNRTGHQLADMLKSCNFSGHHCSASNFSVVYTRYGKCYTFNADPQSSLPSRAGGMGSGLEIMLDIQQEEYLPIWRETNETSFEAGIRVQIHSQEEPPYIHQLGFGVSPGFQTFVSCQEQRLTYLPQPWGNCRAESELREPELQGYSAYSVSACRLRCEKEAVLQRCHCRMVHMPGNETICPPNIYIECADHTLDSLGGGSEGPCFCPTPCNLTRYGKEISMVKIPNRGSARYLARKYNRNETYIRENFLVLDVFFEALTSEAMEQQAAYGLSALLGDLGGQMGLFIGASILTLLEILDYIYEVSWDRLKRVWRRPKTPLRTSTGGISTLGLQELKEQSPCPSRGRAEGGGASSLLPNHHHPHGPPGSLFEDFAC
In the case of B4, in data set [3], the “other: surface expression of ASIC1a in vivo” value is on record as “increases”. Moreover, the “other: surface expression of co-expressed ASIC1a” value in data set [1] is “increases”. In addition, the “other: channel current” value in data set [2] is listed as “increases”.

B5: ASIC4: ASIC4N243A (protein)
parent chain: MPIEIVCKIKFAEEDAKPKEKEAGDEQSLLGAAQGPAAPRDLATFASTSTLHGLGRACGPGPHGLRRTLWALALLTSLAAFLYQAASLARGYLTRPHLVAMDPAAPAPVAGFPAVTLCNINRFRHSALSDADIFHLANLTGLPPKDRDGHRAAGLRYPEPDMVDILNRTGHQLADMLKSCNFSGHHCSASNFSVVYTRYGKCYTFNADPQSSLPSRAGGMGSGLEIMLDIQQEEYLPIWRETNETSFEAGIRVQIHSQEEPPYIHQLGFGVSPGFQTFVSCQEQRLTYLPQPWGNCRAESELREPELQGYSAYSVSACRLRCEKEAVLQRCHCRMVHMPGNETICPPNIYIECADHTLDSLGGGSEGPCFCPTPCNLTRYGKEISMVKIPNRGSARYLARKYNRNETYIRENFLVLDVFFEALTSEAMEQQAAYGLSALLGDLGGQMGLFIGASILTLLEILDYIYEVSWDRLKRVWRRPKTPLRTSTGGISTLGLQELKEQSPCPSRGRAEGGGASSLLPNHHHPHGPPGSLFEDFAC
For the protein B5, in data set [3], the “other: surface expression of ASIC1a in vivo” value is given as “no change”. The “other: surface expression of co-expressed ASIC1a” value in data set [1] was “no change”. Besides, the “other: channel current” value in data set [2] was “no change”.
